# Experimental data reported in IntAct's records for PubMed 31515488.
# B1: Ornithine decarboxylase antizyme 3 (Homo sapiens), Q9UMX2 (parent)
# chain: MPCKRCRPSVYSLSYIKRGKTRNYLYPIWSPYAYYLYCYKYRITLREKMLPRCYKSITYKEEEDLTLQPRSCLQCSESLVGLQEGKSTEQGNHDQLKELYSAGNLTVLATDPLLHQDPVQLDFHFRLTSQTSAHWHGLLCDRRLFLDIPYQALDQGNRESLTATLEYVEEKTNVDSVFVNFQNDRNDRGALLRAFSYMGFEVVRPDHPALPPLDNVIFMVYPLERDVGHLPSEPP
# B2: Keratin, type I cuticular Ha8 (Homo sapiens), O76015 (parent)
# chain: MTSSYSSSSCPLGCTMAPGARNVSVSPIDIGCQPGAEANIAPMCLLANVAHANRVRVGSTPLGRPSLCLPPTCHTACPLPGTCHIPGNIGICGAYGENTLNGHEKETMQFLNDRLANYLEKVRQLEQENAELEATLLERSKCHESTVCPDYQSYFHTIEELQQKILCSKAENARLIVQIDNAKLAADDFRIKLESERSLRQLVEADKCGTQKLLDDATLAKADLEAQQESLKEEQLSLKSNHEQEVKILRSQLGEKLRIELDIEPTIDLNRVLGEMRAQYEAMLETNRQDVEQWFQAQSEGISLQDMSCSEELQCCQSEILELRCTVNALEVERQAQHTLKDCLQNSLCEAEDRFGTELAQMQSLISNVEEQLSEIRADLERQNQEYQVLLDVKTRLENEIATYRNLLESEDCKLPCNPCSTSPSCVTAPCAPRPSCGPCTTCGPTCGASTTGSRF
# partner: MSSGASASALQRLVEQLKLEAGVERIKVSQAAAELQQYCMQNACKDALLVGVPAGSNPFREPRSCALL
# B3: Probable RNA-binding protein EIF1AD (Homo sapiens), Q8N9N8 (parent)
# chain: MSQATKRKHVVKEVLGEHIVPSDQQQIVRVLRTPGNNLHEVETAQGQRFLVSMPSKYRKNIWIKRGDFLIVDPIEEGEKVKAEISFVLCKDHVRSLQKEGFWPEAFSEVAEKHNNRNRQTQPELPAEPQLSGEESSSEDDSDLFVNTNRRQYHESEEESEEEEAA
# partner: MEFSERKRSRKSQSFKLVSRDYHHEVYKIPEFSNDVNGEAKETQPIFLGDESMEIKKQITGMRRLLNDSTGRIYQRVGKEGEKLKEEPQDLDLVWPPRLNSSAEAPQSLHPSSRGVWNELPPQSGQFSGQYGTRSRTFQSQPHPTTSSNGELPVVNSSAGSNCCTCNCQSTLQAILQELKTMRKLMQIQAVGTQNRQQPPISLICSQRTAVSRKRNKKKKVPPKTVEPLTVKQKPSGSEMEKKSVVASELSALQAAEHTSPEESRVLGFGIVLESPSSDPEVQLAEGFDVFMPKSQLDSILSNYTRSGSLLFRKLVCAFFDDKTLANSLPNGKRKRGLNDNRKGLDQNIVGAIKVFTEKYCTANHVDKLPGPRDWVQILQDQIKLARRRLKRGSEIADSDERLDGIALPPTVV
# B4: Notch homolog 2 N-terminal-like protein A (Homo sapiens), Q7Z3S9 (parent)
# chain: MCVTYHNGTGYCKCPEGFLGEYCQHRDPCEKNRCQNGGTCVAQAMLGKATCRCASGFTGEDCQYSTSHPCFVSRPCLNGGTCHMLSRDTYECTCQVGFTGKECQWTDACLSHPCANGSTCTTVANQFSCKCLTGFTGQKCETDVNECDIPGHCQHGGTCLNLPGSYQCQCLQGFTGQYCDSLYVPCAPSPCVNGGTCRQTGDFTFECNCLPETVRRGTELWERDREVWNGKEHDEN
# partner: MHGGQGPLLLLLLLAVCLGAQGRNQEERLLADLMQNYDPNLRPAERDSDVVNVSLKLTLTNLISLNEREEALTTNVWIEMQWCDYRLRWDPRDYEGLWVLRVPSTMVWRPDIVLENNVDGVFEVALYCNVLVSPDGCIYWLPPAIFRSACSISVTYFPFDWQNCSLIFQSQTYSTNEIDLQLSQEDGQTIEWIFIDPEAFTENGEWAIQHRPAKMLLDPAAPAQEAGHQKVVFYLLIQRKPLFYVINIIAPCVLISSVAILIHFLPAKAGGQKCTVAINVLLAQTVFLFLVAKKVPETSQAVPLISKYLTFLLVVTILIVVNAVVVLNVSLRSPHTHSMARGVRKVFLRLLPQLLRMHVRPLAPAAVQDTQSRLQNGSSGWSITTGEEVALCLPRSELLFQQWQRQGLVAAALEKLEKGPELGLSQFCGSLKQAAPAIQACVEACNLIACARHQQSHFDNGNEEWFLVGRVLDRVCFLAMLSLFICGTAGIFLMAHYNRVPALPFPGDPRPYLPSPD
# B5: Phosphoserine phosphatase (Homo sapiens), P78330 (parent)
# chain: MVSHSELRKLFYSADAVCFDVDSTVIREEGIDELAKICGVEDAVSEMTRRAMGGAVPFKAALTERLALIQPSREQVQRLIAEQPPHLTPGIRELVSRLQERNVQVFLISGGFRSIVEHVASKLNIPATNVFANRLKFYFNGEYAGFDETQPTAESGGKGKVIKLLKEKFHFKKIIMIGDGATDMEACPPADAFIGFGGNVIRQQVKDNAKWYITDFVELLGELEE
# partner: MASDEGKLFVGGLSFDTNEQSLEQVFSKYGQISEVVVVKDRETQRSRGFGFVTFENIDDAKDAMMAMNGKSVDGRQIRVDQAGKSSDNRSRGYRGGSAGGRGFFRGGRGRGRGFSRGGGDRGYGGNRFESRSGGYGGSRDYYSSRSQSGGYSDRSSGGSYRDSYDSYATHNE
# B6: Paraneoplastic antigen Ma2 (Homo sapiens), Q9UL42 (parent)
# chain: MALALLEDWCRIMSVDEQKSLMVTGIPADFEEAEIQEVLQETLKSLGRYRLLGKIFRKQENANAVLLELLEDTDVSAIPSEVQGKGGVWKVIFKTPNQDTEFLERLNLFLEKEGQTVSGMFRALGQEGVSPATVPCISPELLAHLLGQAMAHAPQPLLPMRYRKLRVFSGSAVPAPEEESFEVWLEQATEIVKEWPVTEAEKKRWLAESLRGPALDLMHIVQADNPSISVEECLEAFKQVFGSLESRRTAQVRYLKTYQEEGEKVSAYVLRLETLLRRAVEKRAIPRRIADQVRLEQVMAGATLNQMLWCRLRELKDQGPPPSFLELMKVIREEEEEEASFENESIEEPEERDGYGRWNHEGDD
# B7: Zinc finger and BTB domain-containing protein 43 (Homo sapiens), O43298 (parent)
# chain: MEPGTNSFRVEFPDFSSTILQKLNQQRQQGQLCDVSIVVQGHIFRAHKAVLAASSPYFCDQVLLKNSRRIVLPDVMNPRVFENILLSSYTGRLVMPAPEIVSYLTAASFLQMWHVVDKCTEVLEGNPTVLCQKLNHGSDHQSPSSSSYNGLVESFELGSGGHTDFPKAQELRDGENEEESTKDELSSQLTEHEYLPSNSSTEHDRLSTEMASQDGEEGASDSAEFHYTRPMYSKPSIMAHKRWIHVKPERLEQACEGMDVHATYDEHQVTESINTVQTEHTVQPSGVEEDFHIGEKKVEAEFDEQADESNYDEQVDFYGSSMEEFSGERSDGNLIGHRQEAALAAGYSENIEMVTGIKEEASHLGFSATDKLYPCQCGKSFTHKSQRDRHMSMHLGLRPYGCGVCGKKFKMKHHLVGHMKIHTGIKPYECNICAKRFMWRDSFHRHVTSCTKSYEAAKAEQNTTEAN
# partner: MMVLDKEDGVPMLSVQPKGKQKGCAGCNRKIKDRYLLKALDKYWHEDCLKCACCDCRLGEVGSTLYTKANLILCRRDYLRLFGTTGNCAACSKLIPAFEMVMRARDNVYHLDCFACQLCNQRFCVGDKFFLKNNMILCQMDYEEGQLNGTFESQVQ
# B8: Transcriptional repressor p66-beta (Homo sapiens), Q8WXI9 (parent)
# chain: MDRMTEDALRLNLLKRSLDPADERDDVLAKRLKMEGHEAMERLKMLALLKRKDLANLEVPHELPTKQDGSGVKGYEEKLNGNLRPHGDNRTAGRPGKENINDEPVDMSARRSEPERGRLTPSPDIIVLSDNEASSPRSSSRMEERLKAANLEMFKGKGIEERQQLIKQLRDELRLEEARLVLLKKLRQSQLQKENVVQKTPVVQNAASIVQPSPAHVGQQGLSKLPSRPGAQGVEPQNLRTLQGHSVIRSATNTTLPHMLMSQRVIAPNPAQLQGQRGPPKPGLVRTTTPNMNPAINYQPQSSSSVPCQRTTSSAIYMNLASHIQPGTVNRVSSPLPSPSAMTDAANSQAAAKLALRKQLEKTLLEIPPPKPPAPLLHFLPSAANSEFIYMVGLEEVVQSVIDSQGKSCASLLRVEPFVCAQCRTDFTPHWKQEKNGKILCEQCMTSNQKKALKAEHTNRLKNAFVKALQQEQEIEQRLQQQAALSPTTAPAVSSVSKQETIMRHHTLRQAPQPQSSLQRGIPTSARSMLSNFAQAPQLSVPGGLLGMPGVNIAYLNTGIGGHKGPSLADRQREYLLDMIPPRSISQSISGQK
# B9: Cyclin-dependent kinase 2-interacting protein (Homo sapiens), Q9BW66 (parent)
# chain: MEAKTLGTVTPRKPVLSVSARKIKDNAADWHNLILKWETLNDAGFTTANNIANLKISLLNKDKIELDSSSPASKENEEKVCLEYNEELEKLCEELQATLDGLTKIQVKMEKLSSTTKGICELENYHYGEESKRPPLFHTWPTTHFYEVSHKLLEMYRKELLLKRTVAKELAHTGDPDLTLSYLSMWLHQPYVESDSRLHLESMLLETGHRAL
# partner: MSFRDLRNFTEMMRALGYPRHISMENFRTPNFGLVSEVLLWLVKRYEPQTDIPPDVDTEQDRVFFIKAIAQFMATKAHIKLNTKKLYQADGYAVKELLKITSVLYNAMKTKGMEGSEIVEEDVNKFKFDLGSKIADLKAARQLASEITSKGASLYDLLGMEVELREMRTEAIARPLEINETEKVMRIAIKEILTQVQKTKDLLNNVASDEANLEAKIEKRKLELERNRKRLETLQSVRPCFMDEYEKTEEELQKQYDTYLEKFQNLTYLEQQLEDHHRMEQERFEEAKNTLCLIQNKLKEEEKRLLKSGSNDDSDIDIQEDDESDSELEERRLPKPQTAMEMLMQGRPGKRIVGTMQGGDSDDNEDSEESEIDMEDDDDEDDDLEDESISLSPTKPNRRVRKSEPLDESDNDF
# B10: E3 ubiquitin-protein ligase TRIM69 (Homo sapiens), Q86WT6 (parent)
# chain: MEVSTNPSSNIDPGDYVEMNDSITHLPSKVVIQDITMELHCPLCNDWFRDPLMLSCGHNFCEACIQDFWRLQAKETFCPECKMLCQYNNCTFNPVLDKLVEKIKKLPLLKGHPQCPEHGENLKLFSKPDGKLICFQCKDARLSVGQSKEFLQISDAVHFFTEELAIQQGQLETTLKELQTLRNMQKEAIAAHKENKLHLQQHVSMEFLKLHQFLHSKEKDILTELREEGKALNEEMELNLSQLQEQCLLAKDMLVSIQAKTEQQNSFDFLKDITTLLHSLEQGMKVLATRELISRKLNLGQYKGPIQYMVWREMQDTLCPGLSPLTLDPKTAHPNLVLSKSQTSVWHGDIKKIMPDDPERFDSSVAVLGSRGFTSGKWYWEVEVAKKTKWTVGVVRESIIRKGSCPLTPEQGFWLLRLRNQTDLKALDLPSFSLTLTNNLDKVGIYLDYEGGQLSFYNAKTMTHIYTFSNTFMEKLYPYFCPCLNDGGENKEPLHILHPQ
# B11: Bcl-2-interacting killer (Homo sapiens), Q13323 (parent)
# chain: MSEVRPLSRDILMETLLYEQLLEPPTMEVLGMTDSEEDLDPMEDFDSLECMEGSDALALRLACIGDEMDVSLRAPRLAQLSEVAMHSLGLAFIYDQTEDIRDVLRSFMDGFTTLKENIMRFWRSPNPGSWVSCEQVLLALLLLLALLLPLLSGGLHLLLK
# partner: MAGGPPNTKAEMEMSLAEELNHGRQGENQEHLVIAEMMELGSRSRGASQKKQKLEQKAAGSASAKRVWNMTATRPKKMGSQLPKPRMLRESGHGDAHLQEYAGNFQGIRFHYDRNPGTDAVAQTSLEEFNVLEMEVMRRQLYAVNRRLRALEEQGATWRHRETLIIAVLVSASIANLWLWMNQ
# Variants of: B1
# Conditions: with azin1_human AZIN1, O14977
# azin1_human AZIN1, O14977, sequence (O14977 whole entry): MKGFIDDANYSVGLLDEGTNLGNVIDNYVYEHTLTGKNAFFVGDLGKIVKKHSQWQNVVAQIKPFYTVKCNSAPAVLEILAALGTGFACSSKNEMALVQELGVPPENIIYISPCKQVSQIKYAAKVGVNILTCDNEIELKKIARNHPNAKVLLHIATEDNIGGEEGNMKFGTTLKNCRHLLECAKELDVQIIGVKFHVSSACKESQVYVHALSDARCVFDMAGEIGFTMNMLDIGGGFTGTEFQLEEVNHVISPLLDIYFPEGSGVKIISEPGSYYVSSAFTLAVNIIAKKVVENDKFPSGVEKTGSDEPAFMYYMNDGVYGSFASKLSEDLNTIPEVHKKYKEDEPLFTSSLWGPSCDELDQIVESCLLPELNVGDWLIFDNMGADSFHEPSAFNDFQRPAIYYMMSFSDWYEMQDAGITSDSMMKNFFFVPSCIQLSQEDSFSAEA
row,Variant,effect of a mutation on the interaction
1,V174A,with no effect
2,R193Q,with no effect

# Variants of: B2
# Conditions: with gbg10_human GNG10, P50151
row,Variant,effect of a mutation on the interaction
1,A205S,with no effect

# Variants of: B3
# Conditions: with bend7_human BEND7, Q8N7W2
row,Variant,effect of a mutation on the interaction
1,R48C,with no effect

# Variants of: B4
# Conditions: with achg_human CHRNG
row,Variant,effect of a mutation on the interaction
1,R74Q,with no effect
2,A115T,with no effect

# Variants of: B5
# Conditions: with cirbp_human CIRBP
row,Variant,effect of a mutation on the interaction
1,T149M,with no effect
2,T152I,with no effect

# Variants of: B6
# Conditions: with sdcb1_human SDCBP
row,Variant,effect of a mutation on the interaction
1,E186K,with no effect

# Variants of: B6
# Conditions: with psa1_human PSMA1, P25786
# psa1_human PSMA1, P25786, sequence (P25786 whole entry): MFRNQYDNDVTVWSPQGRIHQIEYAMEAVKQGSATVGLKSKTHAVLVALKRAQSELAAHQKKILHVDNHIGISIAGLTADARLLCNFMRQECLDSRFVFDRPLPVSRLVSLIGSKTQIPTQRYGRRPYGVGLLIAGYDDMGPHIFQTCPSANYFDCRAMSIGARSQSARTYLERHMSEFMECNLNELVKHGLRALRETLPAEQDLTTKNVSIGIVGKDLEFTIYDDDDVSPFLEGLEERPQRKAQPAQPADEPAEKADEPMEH
row,Variant,effect of a mutation on the interaction
1,E186K,with no effect

# Variants of: B7
# Conditions: with rbtn1_human LMO1, P25800
row,Variant,effect of a mutation on the interaction
1,L151V,disrupting interaction strength

# Variants of: B8
# Conditions: with traf1_human TRAF1, Q13077
# traf1_human TRAF1, Q13077, sequence (Q13077 whole entry): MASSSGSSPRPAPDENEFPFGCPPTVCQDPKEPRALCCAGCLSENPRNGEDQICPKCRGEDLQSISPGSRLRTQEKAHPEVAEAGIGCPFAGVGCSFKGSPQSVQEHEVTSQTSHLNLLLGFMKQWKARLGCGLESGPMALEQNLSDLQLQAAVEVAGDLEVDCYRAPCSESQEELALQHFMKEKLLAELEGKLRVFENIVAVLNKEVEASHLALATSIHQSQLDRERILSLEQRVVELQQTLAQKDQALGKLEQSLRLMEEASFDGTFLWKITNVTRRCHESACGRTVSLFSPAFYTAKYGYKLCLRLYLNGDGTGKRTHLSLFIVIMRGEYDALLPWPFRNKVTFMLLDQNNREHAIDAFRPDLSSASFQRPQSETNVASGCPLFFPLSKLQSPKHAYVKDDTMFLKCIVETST
row,Variant,effect of a mutation on the interaction
1,A490V,with no effect

# Variants of: B9
# Conditions: with clua1_human CLUAP1, Q96AJ1
row,Variant,effect of a mutation on the interaction
1,R164H,disrupting interaction strength

# Variants of: B9
# Conditions: with clua1_human CLUAP1, Q96AJ1
# Remark: another data set of the same source
row,Variant,effect of a mutation on the interaction
1,D177N,with no effect

# Variants of: B10
# Conditions: with at5g1_human ATP5MC1, P05496
# at5g1_human ATP5MC1, P05496, sequence (P05496 whole entry): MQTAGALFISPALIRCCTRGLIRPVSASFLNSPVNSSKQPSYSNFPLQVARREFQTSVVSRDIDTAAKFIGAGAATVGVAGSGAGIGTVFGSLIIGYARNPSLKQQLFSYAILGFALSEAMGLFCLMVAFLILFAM
row,Variant,effect of a mutation on the interaction
1,I399F,with no effect
2,A190V,with no effect
3,Q301H,with no effect
4,N239K,disrupting interaction strength

# Variants of: B10
# Conditions: with maga4_human MAGEA4, P43358
# maga4_human MAGEA4, P43358, sequence (P43358 whole entry): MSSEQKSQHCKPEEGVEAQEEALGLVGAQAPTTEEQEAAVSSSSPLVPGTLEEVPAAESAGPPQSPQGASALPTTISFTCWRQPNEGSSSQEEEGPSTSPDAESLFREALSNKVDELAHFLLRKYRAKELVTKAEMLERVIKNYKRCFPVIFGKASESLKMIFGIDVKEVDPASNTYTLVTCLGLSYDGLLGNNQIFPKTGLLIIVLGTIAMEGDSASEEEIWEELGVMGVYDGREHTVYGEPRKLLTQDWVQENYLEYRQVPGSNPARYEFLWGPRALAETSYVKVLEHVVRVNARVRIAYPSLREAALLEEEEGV
row,Variant,effect of a mutation on the interaction
1,I399F,with no effect
2,A190V,with no effect
3,Q301H,with no effect
4,N239K,with no effect

# Variants of: B11
# Conditions: with fate1_human FATE1, Q969F0
row,Variant,effect of a mutation on the interaction
1,D69E,with no effect
